According to US20100303724A1 (UNIVERSITE PARIS DIDEROT PARIS 7, published 2010):
Bridge positions count the residues as written; N and C are the ends. * marks the point of attachment. Biotin = O=C1N[C@H]2[C@H](CS[C@H]2CCCCC(=O)*)N1

Experiments:
[1] = target: T1, soluble recombinant GPVI-Fc fusion protein (human, UniProt Q9HCN6 21-269, limits assumed); assay: SPR; biotin-collagelin on a streptavidin sensorchip
T1 construct: also called recombinant soluble GPVI; recombinant soluble human GPVI-Fc; not shown: Fc part
T1 sequence (looked up): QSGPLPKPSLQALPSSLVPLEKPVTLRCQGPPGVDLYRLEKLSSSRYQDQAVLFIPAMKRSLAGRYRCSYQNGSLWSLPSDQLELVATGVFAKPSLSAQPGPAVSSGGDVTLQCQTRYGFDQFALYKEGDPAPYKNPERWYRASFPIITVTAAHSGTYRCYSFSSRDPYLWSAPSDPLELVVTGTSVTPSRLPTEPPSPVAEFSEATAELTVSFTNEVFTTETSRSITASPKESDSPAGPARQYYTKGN

[2] = target: T2, type I equine fibrillar collagen (Collagen Horm, Nycomed) (equine); assay: SPR; biotin-collagelin injected on collagen amine-coupled to a CM5 sensorchip
T2 construct: Bought fibrillar preparation; also called type I collagen; fibrillar type I collagen
Protocol: FIG. 2: Interaction of the collagelin with collagen: A Collagen was injected on biotin-collagelin immobilized on a streptavidin coated sensorchip. ˜10 RU collagen were bound onto the collagelin coated surface (dark). The fit is also indicated (grey). Non-specific background signal from a control flow cell coated with an irrelevant peptide was deduced. B Binding of collagelin to immobilized collagen. Increasing quantities of biotin-collagelin (250, 500 μg.mL−1) were injected on a collagen immobilized on a CM5 sensorchip. Sensorgrams and interaction fits obtained with the peptide are shown in black and grey respectively. Non-specific background measured using an irrelevant peptide was deduced.
In other experiments, fibrillar collagen was manually immobilized on a CM5-sensorchip according to the manufacturer's instructions (Biacore, Uppsala, Sweden). The biotinylated peptide (125; 250, 500 and 1000 μg/mL) was injected on immobilized collagen at 25° C. with a flow rate of 20 μL.min−1. In competition experiments, the peptide was pre-incubated with recombinant soluble human GPVI-Fc or the 9O12.2 IgGs before injection onto the surface. The surface plasmon resonance intensity was monitored and data analyzed using BioEval2.0 (Biacore).
Using the streptavidin-coated sensorship onto which biotin-collagelin was immobilized we observed binding of type I collagen to the surface (FIG. 2A). […]

[3] = target: T3, bovine fibrinogen (Sigma) (bovine, UniProt P02672 20-615; P02676 1-468; P12799 25-444, limits assumed); assay: Solid phase assay: biotin-collagelin on coated fibrinogen, detected with peroxidase-coupled extravidin [panel B]
T3 construct: Bought protein
T3 sequence (looked up) 1: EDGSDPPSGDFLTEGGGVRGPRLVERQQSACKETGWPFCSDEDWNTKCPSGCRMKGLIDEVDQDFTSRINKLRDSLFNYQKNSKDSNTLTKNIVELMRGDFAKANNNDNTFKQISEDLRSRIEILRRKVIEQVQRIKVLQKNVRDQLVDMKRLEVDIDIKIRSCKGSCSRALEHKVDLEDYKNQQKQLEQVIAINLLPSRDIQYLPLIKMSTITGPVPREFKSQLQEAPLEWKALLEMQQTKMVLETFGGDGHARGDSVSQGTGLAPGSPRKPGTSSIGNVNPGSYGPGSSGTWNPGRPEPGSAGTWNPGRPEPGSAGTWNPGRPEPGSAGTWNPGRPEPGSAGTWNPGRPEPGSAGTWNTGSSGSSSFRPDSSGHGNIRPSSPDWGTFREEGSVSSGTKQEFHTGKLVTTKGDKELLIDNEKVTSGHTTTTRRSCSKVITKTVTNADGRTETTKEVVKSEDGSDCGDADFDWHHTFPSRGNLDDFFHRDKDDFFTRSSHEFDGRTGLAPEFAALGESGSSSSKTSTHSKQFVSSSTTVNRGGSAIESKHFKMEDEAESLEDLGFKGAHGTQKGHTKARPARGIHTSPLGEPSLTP
T3 sequence (looked up) 2: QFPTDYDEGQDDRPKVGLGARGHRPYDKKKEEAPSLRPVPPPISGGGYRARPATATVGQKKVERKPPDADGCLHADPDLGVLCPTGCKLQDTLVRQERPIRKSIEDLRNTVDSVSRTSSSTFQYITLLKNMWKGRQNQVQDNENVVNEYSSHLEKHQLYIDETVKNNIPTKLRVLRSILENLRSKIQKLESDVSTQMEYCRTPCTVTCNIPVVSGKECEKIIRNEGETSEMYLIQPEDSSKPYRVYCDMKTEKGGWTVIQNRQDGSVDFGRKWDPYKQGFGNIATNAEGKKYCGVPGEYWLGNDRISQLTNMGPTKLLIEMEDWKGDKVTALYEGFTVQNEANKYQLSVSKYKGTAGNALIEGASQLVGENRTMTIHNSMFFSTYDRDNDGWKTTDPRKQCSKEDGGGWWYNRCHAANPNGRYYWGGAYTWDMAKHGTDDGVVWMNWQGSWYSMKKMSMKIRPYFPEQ
T3 sequence (looked up) 3: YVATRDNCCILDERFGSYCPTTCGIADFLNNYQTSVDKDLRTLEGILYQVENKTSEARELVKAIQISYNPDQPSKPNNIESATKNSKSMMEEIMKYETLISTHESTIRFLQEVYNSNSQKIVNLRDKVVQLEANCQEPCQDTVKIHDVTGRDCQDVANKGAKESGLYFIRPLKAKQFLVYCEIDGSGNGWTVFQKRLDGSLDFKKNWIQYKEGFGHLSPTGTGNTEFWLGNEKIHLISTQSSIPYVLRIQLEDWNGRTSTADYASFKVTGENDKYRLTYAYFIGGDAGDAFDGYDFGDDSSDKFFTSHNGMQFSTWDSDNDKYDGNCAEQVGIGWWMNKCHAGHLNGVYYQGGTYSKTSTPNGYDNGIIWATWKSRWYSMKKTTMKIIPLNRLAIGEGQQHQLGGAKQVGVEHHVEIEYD
Protocol: (§1) FIG. 3: Peptide Interaction with collagen and with different macromolecules: A Binding of collagelin to immobilized collagen in microtitration plates. biotin-collagelin or control peptide were incubated with immobilized fibrillar type I collagen and bound peptide was detected using peroxydase-coupled extravidine. In competition experiments collagelin was mixed with recombinant soluble GPVI (50 and 20 μg.mL−1), 9O12 IgGs (50 and 20 μg.mL−1) or 3J24.2 IgGs (50 μg.mL−1) prior to addition to collagen-coated wells. B: Binding of biotin-collagelin or control peptide (50 μg.mL−1) to immobilized fibrinogen, fibronectin, vitronectin and laminin. Coating of microtitration wells with the different proteins was performed as with collagen. Bound peptides were detected using peroxidase coupled extravidine.
(§2) Proteins [type I equine fibrillar collagen (Horm), bovine fibrinogen (Sigma), human fibronectin (Sigma), rat vitronectin (Sigma), murine laminin (Gibco), and bovine serum albumin (BSA Sigma)] were coated (1 μg/well) on microtitration plates (Immulon 2 Dynex vWR) for 24 hours at 4° C. After saturation of free sites with BSA, biotinylated FLIGPVI peptide (50 μg/ml) was added to the wells for 2 hours. The peptide bound to the wells was then detected using extravidin-HRP and orthophenyldiamine as substrate.

[4] = target: T4, human fibronectin (Sigma) (human, UniProt P02751-8 32-2296, limits assumed); assay: Solid phase assay: biotin-collagelin on coated fibronectin, detected with peroxidase-coupled extravidin [panel B]
T4 construct: Bought protein
Protocol: as §1, §2

T4 sequence (P02751 other isoform, or with tags, fused parts or gaps limits assumed): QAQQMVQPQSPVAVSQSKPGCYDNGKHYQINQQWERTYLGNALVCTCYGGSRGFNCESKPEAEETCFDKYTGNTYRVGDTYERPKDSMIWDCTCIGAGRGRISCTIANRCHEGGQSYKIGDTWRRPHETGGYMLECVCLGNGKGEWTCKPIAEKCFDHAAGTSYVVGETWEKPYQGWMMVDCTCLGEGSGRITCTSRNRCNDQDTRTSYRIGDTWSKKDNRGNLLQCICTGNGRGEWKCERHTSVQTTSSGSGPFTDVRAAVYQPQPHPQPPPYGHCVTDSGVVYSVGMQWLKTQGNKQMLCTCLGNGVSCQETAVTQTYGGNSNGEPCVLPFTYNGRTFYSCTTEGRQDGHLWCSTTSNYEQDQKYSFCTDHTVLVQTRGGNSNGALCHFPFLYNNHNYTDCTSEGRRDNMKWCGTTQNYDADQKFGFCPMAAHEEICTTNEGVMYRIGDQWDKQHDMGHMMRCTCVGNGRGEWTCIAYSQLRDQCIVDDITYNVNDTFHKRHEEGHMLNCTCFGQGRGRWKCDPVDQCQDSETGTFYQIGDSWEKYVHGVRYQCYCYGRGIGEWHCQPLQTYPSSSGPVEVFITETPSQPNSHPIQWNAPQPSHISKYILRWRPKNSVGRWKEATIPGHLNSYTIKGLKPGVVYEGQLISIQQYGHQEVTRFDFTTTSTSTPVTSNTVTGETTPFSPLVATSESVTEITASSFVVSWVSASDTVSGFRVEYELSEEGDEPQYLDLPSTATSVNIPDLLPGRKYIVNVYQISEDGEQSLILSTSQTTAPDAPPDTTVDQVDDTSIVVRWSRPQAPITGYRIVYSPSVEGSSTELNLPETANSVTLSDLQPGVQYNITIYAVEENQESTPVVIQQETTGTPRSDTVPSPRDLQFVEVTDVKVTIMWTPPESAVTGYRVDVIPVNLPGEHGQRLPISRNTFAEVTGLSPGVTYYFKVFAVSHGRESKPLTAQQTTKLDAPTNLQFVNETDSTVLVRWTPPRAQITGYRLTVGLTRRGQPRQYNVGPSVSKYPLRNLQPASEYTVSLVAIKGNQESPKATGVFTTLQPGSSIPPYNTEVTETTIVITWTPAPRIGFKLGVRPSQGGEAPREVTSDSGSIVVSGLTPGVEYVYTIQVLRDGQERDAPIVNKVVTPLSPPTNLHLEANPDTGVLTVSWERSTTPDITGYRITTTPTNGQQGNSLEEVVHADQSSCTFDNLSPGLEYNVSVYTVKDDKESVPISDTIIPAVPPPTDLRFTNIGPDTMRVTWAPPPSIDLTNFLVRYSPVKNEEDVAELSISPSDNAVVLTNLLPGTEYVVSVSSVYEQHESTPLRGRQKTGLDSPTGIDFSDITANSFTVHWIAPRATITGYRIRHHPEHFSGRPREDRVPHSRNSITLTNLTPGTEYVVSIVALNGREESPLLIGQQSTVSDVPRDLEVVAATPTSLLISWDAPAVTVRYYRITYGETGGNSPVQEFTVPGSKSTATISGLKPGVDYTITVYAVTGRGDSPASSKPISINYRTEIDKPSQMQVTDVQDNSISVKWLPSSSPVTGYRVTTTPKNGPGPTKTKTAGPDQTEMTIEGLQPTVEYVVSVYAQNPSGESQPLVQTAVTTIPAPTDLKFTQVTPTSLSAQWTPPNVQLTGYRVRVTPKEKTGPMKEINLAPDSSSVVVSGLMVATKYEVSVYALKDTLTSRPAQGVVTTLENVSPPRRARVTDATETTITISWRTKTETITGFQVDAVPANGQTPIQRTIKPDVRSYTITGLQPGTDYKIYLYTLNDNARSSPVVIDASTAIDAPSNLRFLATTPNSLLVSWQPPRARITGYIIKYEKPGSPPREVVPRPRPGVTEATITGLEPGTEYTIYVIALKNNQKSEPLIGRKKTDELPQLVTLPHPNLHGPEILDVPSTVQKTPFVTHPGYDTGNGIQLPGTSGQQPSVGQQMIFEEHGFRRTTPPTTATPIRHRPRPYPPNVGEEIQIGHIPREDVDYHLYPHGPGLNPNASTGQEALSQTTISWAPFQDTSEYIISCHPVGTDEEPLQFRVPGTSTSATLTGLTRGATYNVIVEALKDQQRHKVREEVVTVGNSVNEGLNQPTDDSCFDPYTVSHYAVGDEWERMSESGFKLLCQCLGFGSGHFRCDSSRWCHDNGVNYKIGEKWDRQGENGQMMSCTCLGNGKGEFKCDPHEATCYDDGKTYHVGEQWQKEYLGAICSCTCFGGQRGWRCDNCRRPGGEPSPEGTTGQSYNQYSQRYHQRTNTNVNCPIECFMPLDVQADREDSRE

B1: biotin-collagelin (peptide)
peptide: Biotin-SGSGCGPRVMHGLHLGDDEGPC-NH2
modifications: disulfide 5-22
SMILES: CSCC[C@@H]1NC(=O)[C@H](C(C)C)NC(=O)[C@H](CCCNC(=N)N)NC(=O)[C@@H]2CCCN2C(=O)CNC(=O)[C@@H](NC(=O)CNC(=O)[C@H](CO)NC(=O)CNC(=O)[C@H](CO)NC(=O)CCCC[C@@H]2SC[C@@H]3NC(=O)N[C@@H]32)CSSC[C@@H](C(N)=O)NC(=O)[C@@H]2CCCN2C(=O)CNC(=O)[C@H](CCC(=O)O)NC(=O)[C@H](CC(=O)O)NC(=O)[C@H](CC(=O)O)NC(=O)CNC(=O)[C@H](CC(C)C)NC(=O)[C@H](Cc2c[nH]cn2)NC(=O)[C@H](CC(C)C)NC(=O)CNC(=O)[C@H](Cc2c[nH]cn2)NC1=O
notes: also called biotinylated collagelin
binding result [1]: no binding (tested: 25 µg/ml)
Kd [2]: 100 nM
binding result [3]: no binding (tested: 50 µg/mL (legend))
binding result [4]: no binding (tested: 50 µg/mL (legend))
